B1: TPR t1 (parent)
chain: GACCAAUCUGCCCUCAGAGCUCGAGAACAUCUUCGGAUGCAGAGGAGGCAGGCUUCGGUGGCGCGAUAGCGCCAACGUCCUCAACCUCCAAUGCAUCCCACCACAUGAUGAUGCCUGAAGAGCCUUGGUUUUUUG

Variants of: B1
Assay: polymerase ribozyme fitness, log enrichment relative to wild type (log ratio); higher = more active; in vitro selection for triplet polymerase activity
How it was run: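 After PCR construction and transcription, each subunit's mutant library from a heterodimeric triplet polymerase ribozyme was annealed with a biotinylated primer, the partner subunit and triplets. Incubation was frozen, at −7 °C, and extended constructs were gel-excised, bound to streptavidin beads and amplified by RT-PCR, in one selection round done in triplicate. Fitness is the logarithm of a genotype's enrichment divided by that of the wild type, from inverse-variance-weighted replicate averages of Illumina-sequenced inputs and outputs. The base of the logarithm is 2, and genotypes needed ≥10 input reads and ≥1 read per output.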

Row | Variant | polymerase ribozyme fitness (log ratio)
1 | C8G C34A C72G C82U G110U | -4.9
2 | C8G A95G | 0.646
3 | C8G G47C G60A | -1.03
4 | C8G A50U G61U | 0.00345
5 | C8G C20U G36C C49A A75G A100U | -2.01
6 | C8G U32A | -3.34
7 | C8G C85A C124U | 1.24
8 | C8G C72A C89A C94G | -1.88
9 | C8G C70G A74U | -4.41
10 | C8G A46G C72U G110A | -0.393
11 | C8G C89U U106A | 0.442
12 | C8G A27U G36A G42U C76A U96A U109A U116G | -6.96
13 | C8G C13A A18U G51U C56A U116C | -5.95
14 | C8G C123U | 1.6
15 | C8U A16C C64U U112C U132A | 1.19
16 | C8G G10A A18G G65C U116G G117A | -5.46
17 | C8G C11U C40U G61C A90G C97U U129G | -3.08
18 | C8G U14G G35C C64U C94U | -3.36
19 | C8G U33G C72G C80U A103U G110C A121C U129C | -7.86
20 | C8U A18U A37C G45U C53A G113A C124U | -2.69
21 | C8G G60C U81A C123A | 0.434

Row | Variant | polymerase ribozyme fitness (log ratio)
22 | C8G G63U A75U A83G C85A G122A | -0.256
23 | C8G C11U C22G C72U | -3.41
24 | C8U A18C A41U A50G C101U | -2.01
25 | C8G C114A G135U | -0.31
26 | C8G A29U C73A G120U | -0.106
27 | C8G C13G A16U C49A U129C | -0.993
28 | C8G C22A C62U U106A | -3.64
29 | C8G C115G | 1.06
30 | C8G C115U | -0.75
31 | C8G C28G C56A C88A | -3.47
32 | C8G C73U | 0.902
33 | C8G U21A C76G C99A U112A | -5.05
34 | C8G C28A G61A | -3.79
35 | C8G C12A G63C | 0.17
36 | C8G G17U G48A G57U G69U A105U | -2.21
37 | C8G A41C | -1.28
38 | C8G U81A | 0.387
39 | C8G U81C | 0.586
40 | C8G A46G C97U G120U U132A | 1.67
41 | C8G G60U C85G A108U U131A | -5.69
42 | C8G C34A U78C C97A G107A | -3.66

Row | Variant | polymerase ribozyme fitness (log ratio)
43 | C8G C76U C82G G93A U116C | -2.26
44 | C8G G65U | -5.38
45 | C8G U33G C99A C101A | -5.4
46 | C8G A50G | 0.932
47 | C8U A16U G47A C56A C101A C124U | -1.44
48 | C8U A37G G61U U130A | -0.107
49 | C8G A46G A66C A90U | -4.16
50 | C8G G42U G60C U81A U129G | -6.22
51 | C8G U9C A16G A24U C28U U92C U96A C99A A111U G120C | -6.18
52 | C8G A68G G71U A108G | -4.73
53 | C8G U54G C89G | -1.05
54 | C8G U109A | -4.06
55 | C8G C70U A74U C98U G110A | -6.03
56 | C8G A29U | -1.15
57 | C8G U30A | -5.66
58 | C8G U38A U54G C62A C98A C123U | -7.56
59 | C8G C99U | -2.82
60 | C8G A18C A37C C64G A90U U106A C123A U131A | -6.48
61 | C8G G128C | -0.73
62 | C8G G58A G93U C101U A121C | 0.327
63 | C8G C94A C104U | 0.226

Row | Variant | polymerase ribozyme fitness (log ratio)
64 | C8G C15U C62U G135U | -1.08
65 | C8U A18C G48C A95G | -2.07
66 | C8G C13A U67C | -4.98
67 | C8G A27G G93U C104A A111U U125C | -4.25
68 | C8G C34A C40U U55A G69U C79U C98U G107U A111U G117C | -6.38
69 | C8G G10C C11U C20A U33C C56G G63U C64G C72G C114G G127U | -6.79
70 | C8G U55G G61C | -0.439
71 | C8G G42U G58C | -0.604
72 | C8G U9G G10U | -0.244
73 | C8G G60C A66C U131G | -3.98
74 | C8G G17U A26U C72G | -4.46
75 | C8G A27U G47C | -3.02
76 | C8G A41G U78G G122U | -0.0287
77 | C8G C20A U96A U131G | -3.68
78 | C8G C49A U54C G122U | 0.439
79 | C8G G57A A84U G120U | 0.672
80 | C8G U9A G17C A95G C115A | -0.322
81 | C8G U87A C101A A105C | -3.4
82 | C8U A27G G42U C56A A74C C89U A111C | -5.47
83 | C8G G60U C70U C79A U96C | -4.38
84 | C8G C56U | 0.485

Reference: the RNAGym collection of RNA variant scans (doi:10.1073/pnas.2313332121)
